Experimental data reported in patent publication US11230581B2, “Peptides and combination of peptides for use in immunotherapy against ovarian cancer and other cancers” (Immatics Biotechnologies GmbH, priority 2015, dated 2022).

These substances were tested against HLA-A*02:01 (Homo sapiens, UniProt P04439, D140Y/D185E/D98H/E176V/E277Q/G131W/G231S/I119V/I121R/I166T/I218V/L300P/L318F/N151K/N90K/P208A/P217A/Q86G/Q94H/R138H/R169H/T345S) (assay: MHC binding assay (UV-ligand exchange, β2m ELISA, peptide exchange yield)). Settings: binding of HLA-class I restricted peptides to HLA-A*02:01, UV-ligand exchange.
Description: Candidate peptides for T cell based therapies according to the present invention were further tested for their MHC binding capacity (affinity). The individual peptide-MHC complexes were produced by UV-ligand exchange, where a UV-sensitive peptide is cleaved upon UV-irradiation, and exchanged with the peptide of interest as analyzed. Only peptide candidates that can effectively bind and stabilize the peptide-receptive MHC molecules prevent dissociation of the MHC complexes. To determine the yield of the exchange reaction, an ELISA was performed based on the detection of the light chain (β2m) of stabilized MHC complexes. The assay was performed as generally described in Rodenko et al. (Rodenko et al., 2006).
96 well MAXISorp plates (NUNC) were coated over night with 2 ug/ml streptavidin in PBS at room temperature, washed 4× and blocked for 1h at 37° C. in 2% BSA containing blocking buffer. […] Peptide-MHC monomers of the UV-exchange reaction were diluted 100 fold in blocking buffer. Samples were incubated for 1 h at 37° C., washed four times, incubated with 2 ug/ml HRP conjugated anti-β2m for 1h at 37° C., washed again and detected with TMB solution that is stopped with […]. Absorption was measured at 450 nm. Candidate peptides that show a high exchange yield (preferably higher than 50%, most preferred higher than 75%) are generally preferred for a generation and production of antibodies or fragments thereof, and/or T cell receptors or fragments thereof, as they show sufficient avidity to the MHC molecules and prevent dissociation of the MHC complexes.

Peptide exchange (MHC class I binding score, peptide exchange yield) | Substance
“++” (≥20% = ++) | 354 (LILEGVDTV; listed as Homo sapiens) [compound 354]
“+++” (≥50 = +++) | 192 (KMLDGASFTL; listed as Homo sapiens) [compound 192]
“+++” (≥50 = +++) | 20 (RMIEYFIDV; listed as Homo sapiens) [compound 20]
“+++” (≥50 = +++) | 113 (GLLPTPLFGV; listed as Homo sapiens) [compound 113]
“+++” (≥50 = +++) | 304 (MTLGQIYYL; listed as Homo sapiens) [compound 304]
“++” (≥20% = ++) | 146 (SLATAGDGLIEL; listed as Homo sapiens) [compound 146]
“+++” (≥50 = +++) | 298 (VMITKLVEV; listed as Homo sapiens) [compound 298]
“++++” (≥75% = ++++) | 91 (IMQDFPAEIFL; listed as Homo sapiens) [compound 91]
“+++” (≥50 = +++) | 23 (VLLDDIFAQL; listed as Homo sapiens) [compound 23]
“+++” (≥50 = +++) | 517 (LLMPIPEGLTL; listed as Homo sapiens) [compound 517]
“++” (≥20% = ++) | 319 (SLEPQIQPV; listed as Homo sapiens) [compound 319]
“+++” (≥50 = +++) | 481 (GLIEDYEALL; listed as Homo sapiens) [compound 481]
“+++” (≥50 = +++) | 317 (SLAALVVHV; listed as Homo sapiens) [compound 317]
“++++” (≥75% = ++++) | 235 (YLNDLHEVLL; listed as Homo sapiens) [compound 235]
“+++” (≥50 = +++) | 125 (VQIHQVAQV; listed as Homo sapiens) [compound 125]
“+++” (≥50 = +++) | 591 (SMAELDIKL; listed as Homo sapiens) [compound 591]
“++++” (≥75% = ++++) | 177 (YLLPEEYTSTL; listed as Homo sapiens) [compound 177]
“++” (≥20% = ++) | 33 (VLLSLLEKV; listed as Homo sapiens) [compound 33]
“+++” (≥50 = +++) | 430 (HLYSSIEHLTT; listed as Homo sapiens) [compound 430]
“+++” (≥50 = +++) | 117 (ILPDGEDFLAV; listed as Homo sapiens) [compound 117]

The remaining lines, values behind:

Substance | Peptide exchange (MHC class I binding score, peptide exchange yield)
148 (ALNPEIVSV; listed as Homo sapiens) [compound 148] | “++” (≥20% = ++)
164 (ALLPQPKNLTV; listed as Homo sapiens) [compound 164] | “+++” (≥50 = +++)
370 (SLLQDLVSV; listed as Homo sapiens) [compound 370] | “+++” (≥50 = +++)
178 (ALTEIAFVV; listed as Homo sapiens) [compound 178] | “++++” (≥75% = ++++)
427 (ALLPLSPYL; listed as Homo sapiens) [compound 427] | “+++” (≥50 = +++)
335 (YSLSSVVTV; listed as Homo sapiens) [compound 335] | “+++” (≥50 = +++)
127 (KIGDEPPKV; listed as Homo sapiens) [compound 127] | “++” (≥20% = ++)
438 (KLLPLAGLYL; listed as Homo sapiens) [compound 438] | “++++” (≥75% = ++++)
464 (ALNDCIYSV; listed as Homo sapiens) [compound 464] | “+++” (≥50 = +++)
103 (TLAEEVVAL; listed as Homo sapiens) [compound 103] | “+++” (≥50 = +++)
209 (KLIESKHEV; listed as Homo sapiens) [compound 209] | “++” (≥20% = ++)
210 (LLLNAVLTV; listed as Homo sapiens) [compound 210] | “++” (≥20% = ++)
339 (GLWEIENNPTVKA; listed as Homo sapiens) [compound 339] | “++++” (≥75% = ++++)
115 (AIAGAGILYGV; listed as Homo sapiens) [compound 115] | “++” (≥20% = ++)
204 (KIAENVEEV; listed as Homo sapiens) [compound 204] | “++” (≥20% = ++)
400 (SLLTEQDLWTV; listed as Homo sapiens) [compound 400] | “++” (≥20% = ++)
491 (GLNDRSDAV; listed as Homo sapiens) [compound 491] | “++” (≥20% = ++)
273 (NLFQSVREV; listed as Homo sapiens) [compound 273] | “++” (≥20% = ++)
188 (GLFPVTPEAV; listed as Homo sapiens) [compound 188] | “+++” (≥50 = +++)
221 (ALYEEGLLL; listed as Homo sapiens) [compound 221] | “++” (≥20% = ++)
302 (ALLQEGEVYSA; listed as Homo sapiens) [compound 302] | “+++” (≥50 = +++)

Substance | Peptide exchange (MHC class I binding score, peptide exchange yield)
550 (FLYDEIEAEVNL; listed as Homo sapiens) [compound 550] | “+++” (≥50 = +++)
409 (LLDAMNYHL; listed as Homo sapiens) [compound 409] | “++” (≥20% = ++)
554 (LLMPSSEDLLL; listed as Homo sapiens) [compound 554] | “+++” (≥50 = +++)
137 (TLVLTLPTV; listed as Homo sapiens) [compound 137] | “++++” (≥75% = ++++)
454 (KLPPPPPQA; listed as Homo sapiens) [compound 454] | “+++” (≥50 = +++)
498 (KLWTGGLDNTV; listed as Homo sapiens) [compound 498] | “+++” (≥50 = +++)
272 (ALGNTVPAV; listed as Homo sapiens) [compound 272] | “+++” (≥50 = +++)
359 (YLLPESVDL; listed as Homo sapiens) [compound 359] | “+++” (≥50 = +++)
195 (GLFADLLPRL; listed as Homo sapiens) [compound 195] | “+++” (≥50 = +++)
145 (FLATSGTLAGI; listed as Homo sapiens) [compound 145] | “++” (≥20% = ++)
240 (ILLEQAFYL; listed as Homo sapiens) [compound 240] | “+++” (≥50 = +++)
578 (FLDPGGPMMKL; listed as Homo sapiens) [compound 578] | “+++” (≥50 = +++)
495 (FIFSEKPVFV; listed as Homo sapiens) [compound 495] | “+++” (≥50 = +++)
100 (YLLSTNAQL; listed as Homo sapiens) [compound 100] | “++++” (≥75% = ++++)
283 (ALYIGDGYVIHLA; listed as Homo sapiens) [compound 283] | “+++” (≥50 = +++)
597 (KLLEGQVIQL; listed as Homo sapiens) [compound 597] | “+++” (≥50 = +++)
501 (LLDPNVKSIFV; listed as Homo sapiens) [compound 501] | “+++” (≥50 = +++)
600 (ALAAPDIVPAL; listed as Homo sapiens) [compound 600] | “+++” (≥50 = +++)
50 (SLSELEALM; listed as Homo sapiens) [compound 50] | “+++” (≥50 = +++)
580 (LLMENAERV; listed as Homo sapiens) [compound 580] | “++” (≥20% = ++)
